Consider two molecules from publication PMC10691131, “Self S-RNase reduces the expression of two pollen-specific COBRA genes to inhibit pollen tube growth in pear”.

In this data set the target is T1, PbC2H2.K16.2 (pear, UniProt UPI0005117FCC 5-185).
T1 sequence: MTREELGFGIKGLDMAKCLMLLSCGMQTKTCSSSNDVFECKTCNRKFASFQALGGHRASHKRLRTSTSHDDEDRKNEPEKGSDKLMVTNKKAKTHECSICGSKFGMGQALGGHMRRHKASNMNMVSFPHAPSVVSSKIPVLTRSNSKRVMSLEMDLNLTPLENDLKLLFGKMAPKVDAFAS
Nature of the data set: EMSA; 10x and 100x cold probe weakens signal; Buffer, salt, pH and temperature not stated; EMSA per Guo et al. 2021, MST per Singh et al. 2014 (Monolith NT.115). Particulars: protein: recombinant; tags: His; label: 5' biotin (EMSA).

B1: PbCOB.A.2 promoter probe (PbC2H2.K16.2) (dsDNA)
DNA 1: TAAAAACATGATTGGTCCAATGCAAGTTAT
DNA 2: ATAACTTGCATTGGACCAATCATGTTTTTA
B1: the binding result is recorded as “binds”.

B2: PbCOB.A.1 promoter probe (dsDNA)
DNA 1: TTCGAGGTTTTTGGTCCAGAAAGAAGAAGA
DNA 2: TCTTCTTCTTTCTGGACCAAAAACCTCGAA
As to B2, the binding result is “binds”.
